These results are taken from article PMC7690628 (Pharmaceuticals, 2020).

The target in one data set is CYP3A4 (Homo sapiens, UniProt P08684). As to the kind of experiment: biochemical.
Substrate in the data set “purified protein”: O=C(CCc1ccc(O)cc1)c1c(O)cc(O)cc1O
The data set is described as follows: purified protein. Conditions: heme.

Chain of CYP3A4 (P08684 2-503): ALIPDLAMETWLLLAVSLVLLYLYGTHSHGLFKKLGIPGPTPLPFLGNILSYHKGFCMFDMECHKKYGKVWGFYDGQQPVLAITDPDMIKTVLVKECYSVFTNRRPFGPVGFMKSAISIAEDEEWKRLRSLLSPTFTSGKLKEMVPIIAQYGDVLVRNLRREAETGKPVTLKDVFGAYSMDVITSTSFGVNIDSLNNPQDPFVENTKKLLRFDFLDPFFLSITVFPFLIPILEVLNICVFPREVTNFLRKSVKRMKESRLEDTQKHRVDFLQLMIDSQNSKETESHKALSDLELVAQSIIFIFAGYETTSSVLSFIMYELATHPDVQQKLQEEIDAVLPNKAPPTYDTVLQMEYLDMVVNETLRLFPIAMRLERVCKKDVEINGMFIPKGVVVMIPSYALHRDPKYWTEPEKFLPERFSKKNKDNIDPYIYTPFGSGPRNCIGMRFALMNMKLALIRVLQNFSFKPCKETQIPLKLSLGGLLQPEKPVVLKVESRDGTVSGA
Chain of CYP3A4 (P00388 2-678 partner): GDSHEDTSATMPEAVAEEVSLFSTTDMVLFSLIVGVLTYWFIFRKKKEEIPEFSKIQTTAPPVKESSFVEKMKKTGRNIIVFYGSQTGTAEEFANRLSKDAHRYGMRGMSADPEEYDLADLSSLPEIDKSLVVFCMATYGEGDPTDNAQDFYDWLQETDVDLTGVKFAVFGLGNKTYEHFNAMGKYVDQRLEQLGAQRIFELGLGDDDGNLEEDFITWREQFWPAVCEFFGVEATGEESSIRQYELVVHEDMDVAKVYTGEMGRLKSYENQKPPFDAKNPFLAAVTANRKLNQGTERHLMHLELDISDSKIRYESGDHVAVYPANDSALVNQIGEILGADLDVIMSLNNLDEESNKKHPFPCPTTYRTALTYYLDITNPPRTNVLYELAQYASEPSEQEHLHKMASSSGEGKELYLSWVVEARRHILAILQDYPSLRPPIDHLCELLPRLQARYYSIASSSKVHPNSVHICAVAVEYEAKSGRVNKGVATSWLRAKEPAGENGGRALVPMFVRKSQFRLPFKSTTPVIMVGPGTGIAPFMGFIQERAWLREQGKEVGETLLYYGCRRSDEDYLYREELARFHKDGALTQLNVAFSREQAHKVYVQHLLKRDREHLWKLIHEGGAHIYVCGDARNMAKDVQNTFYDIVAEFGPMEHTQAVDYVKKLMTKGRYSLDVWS

Regarding `O=C(CCc1ccc(O)cc1)c1c(O)cc(O)cc1O` [phloretin, 3-(4-hydroxyphenyl)-1-(2,4,6-trihydroxyphenyl)propan-1-one], at CYP3A4, the midpoint of inhibition, the IC50, lay at 13 µM.

B1: CYP2C19 (Homo sapiens) (protein)
chain: MDPFVVLVLCLSCLLLLSIWRQSSGRGKLPPGPTPLPVIGNILQIDIKDVSKSLTNLSKIYGPVFTLYFGLERMVVLHGYEVVKEALIDLGEEFSGRGHFPLAERANRGFGIVFSNGKRWKEIRRFSLMTLRNFGMGKRSIEDRVQEEARCLVEELRKTKASPCDPTFILGCAPCNVICSIIFQKRFDYKDQQFLNLMEKLNENIRIVSTPWIQICNNFPTIIDYFPGTHNKLLKNLAFMESDILEKVKEHQESMDINNPRDFIDCFLIKMEKEKQNQQSEFTIENLVITAADLLGAGTETTSTTLRYALLLLLKHPEVTAKVQEEIERVIGRNRSPCMQDRGHMPYTDAVVHEVQRYIDLIPTSLPHAVTCDVKFRNYLIPKGTTILTSLTSVLHDNKEFPNPEMFDPRHFLDEGGNFKKSNYFMPFSAGKRICVGEGLARMELFLFLTFILQNFNLKSLIDPKDLDTTPVVNGFASVPPFYQLCFIPV
For B1, in “purified protein”, the Michaelis constant (Km) (as a rule, the concentration of substrate that gives half-maximal velocity) is 208 ± 50 µM; the kcat – broadly, the maximal rate divided by the concentration of active sites – worked out at 0.0967 s⁻¹; the kcat/Km (in general, the second-order rate constant that governs catalysis at low substrate concentration) stood at 467 M⁻¹ s⁻¹.
